Test [1] concerns the target recombinant human TNF-α (Product 210-TA-050, R&D) (human) (UniProt P01375). As to the kind of experiment: flow cytometry competition: FITC-TNF-α (100 ng/ml) on U937 cells, antibody titrated; experiment 2. For orientation: In flow cytometry, cells or beads pass a laser one at a time.
Test [2] has the same target. The test is described as follows: SPR, Biacore T100, TNFα amine-coupled to CM5 chip, antibody in flow.
Test [3] has the same target. As to the kind of experiment: flow cytometry competition: FITC-TNF-α (100 ng/ml) on U937 cells, antibody titrated; experiment 1.
Test [4] has the same target. As to the kind of experiment: competition ELISA: biotin-TNF-α (10 ng/ml) on coated P75 receptor-Fc, antibody titrated; experiment 1. A general note: An ELISA detects its analyte on a solid surface through an enzyme-linked reagent.
Test [5] has the same target. The test is described as follows: cell-based or functional assay.
Test [6] shares this target. The test is described as follows: competition ELISA: biotin-TNF-α (10 ng/ml) on coated P75 receptor-Fc, antibody titrated; average of 3.
The target is the same in test [7]. As to the kind of experiment: competition ELISA: biotin-TNF-α (10 ng/ml) on coated P75 receptor-Fc, antibody titrated; experiment 2.
Test [8] has the same target. The test is described as follows: competition ELISA: biotin-TNF-α (10 ng/ml) on coated P75 receptor-Fc, antibody titrated; experiment 3.
Test [9] has the same target. As to the kind of experiment: flow cytometry competition: FITC-TNF-α (100 ng/ml) on U937 cells, antibody titrated; average of 3.
The target is the same in test [10]. As to the kind of experiment: flow cytometry competition: FITC-TNF-α (100 ng/ml) on U937 cells, antibody titrated; experiment 3.

Chain of recombinant human TNF-α (Product 210-TA-050, R&D) (human) (P01375 77-233 limits assumed): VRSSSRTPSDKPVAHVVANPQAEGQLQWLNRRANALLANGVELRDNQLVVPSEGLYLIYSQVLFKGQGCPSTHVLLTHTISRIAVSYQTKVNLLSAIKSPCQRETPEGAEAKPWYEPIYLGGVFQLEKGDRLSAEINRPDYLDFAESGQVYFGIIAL

Broadly, the IC50 is the concentration needed to halve the response being measured. As a reminder, the Kd is the concentration at which binding is half-saturated. Turning to “fully human antibody adalimumab (Humira, D2E7, commercial product)”, the half-inhibitory concentration (IC50) in [1] amounted to 8.03 µg/mL. The dissociation constant Kd in test [2] was determined as 0.63 nM. In addition, the half-inhibitory concentration (IC50) in [3] stood at 6.62 µg/mL. The IC50 in test [4] is 2.3 µg/mL. In test [5], the IC50 of resistance to TNF-α-mediated killing of L929 cells (MTS), average is 0.316 µg/mL; the IC50 of resistance to TNF-α-mediated killing of L929 cells (MTS), experiment 1 came out at 0.296 µg/mL; the IC50 of resistance to TNF-α-mediated killing of L929 cells (MTS), experiment 2 was determined as 0.335 µg/mL; the IC50 of resistance to TNF-α-mediated killing of L929 cells (MTS), experiment 3 was 0.318 µg/mL. Also, in test [5], the Increase in Body Temperature of Rabbits (rhTNF-α 5 µg/kg i.v. mixed with antibody 500 µg/kg; 60 min) is 0 ° C, the Survival Status of Mice (rhTNF-α 1 µg + D-galactosamine 20 mg; antibody 1 µg i.p. 30 min before) stood at 20%, the Survival Status of Mice (rhTNF-α 1 µg + D-galactosamine 20 mg; antibody 2 µg i.p. 30 min before) worked out at 40% and the Survival Status of Mice (rhTNF-α 1 µg + D-galactosamine 20 mg; antibody 4 µg i.p. 30 min before) turned out to be 40%. Moreover, in test [5], the Survival Status of Mice (rhTNF-α 1 µg + D-galactosamine 20 mg; antibody 6 µg i.p. 30 min before) was found to be 50% and the Survival Status of Mice (rhTNF-α 1 µg + D-galactosamine 20 mg; antibody 8 µg i.p. 30 min before) came to 60%. Also, the IC50 in test [6] turned out to be 2.35 µg/mL. For the same substance, the IC50 in [7] amounted to 2.15 µg/mL. Also, the half-inhibitory concentration (IC50) in test [8] turned out to be 2.59 µg/mL. The IC50 in test [9] is 7.36 µg/mL. The 50% inhibitory concentration (IC50) in test [10] was determined as 7.44 µg/mL.

The record behind these values is US20120308575A1.
